According to patent publication US20250297003A1:

Target: sialic acid-binding immunoglobulin-like lectin-9 (Siglec-9), human, on mast cells (human) (UniProt Q9Y336)
Experiment: cell-based or functional assay

UniProt Q9Y336, sequence (Q9Y336 18-463): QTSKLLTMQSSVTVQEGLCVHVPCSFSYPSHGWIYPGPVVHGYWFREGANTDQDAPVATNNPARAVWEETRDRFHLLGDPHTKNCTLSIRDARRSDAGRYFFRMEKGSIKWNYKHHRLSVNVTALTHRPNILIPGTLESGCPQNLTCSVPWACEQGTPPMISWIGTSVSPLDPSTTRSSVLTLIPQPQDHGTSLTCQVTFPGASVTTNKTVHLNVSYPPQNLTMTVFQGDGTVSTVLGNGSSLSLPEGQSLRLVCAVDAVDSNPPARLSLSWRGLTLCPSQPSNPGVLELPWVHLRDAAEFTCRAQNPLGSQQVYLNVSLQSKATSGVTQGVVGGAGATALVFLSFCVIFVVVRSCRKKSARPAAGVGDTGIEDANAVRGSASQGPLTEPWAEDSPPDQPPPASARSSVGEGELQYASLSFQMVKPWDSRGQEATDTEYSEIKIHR

In the case of “mouse anti-human Siglec-9 monoclonal antibody (clone 191240, R&D Systems)”, the inhibition of MCP-1 release by HSCMCs (Siglec-9 co-crosslinked with FcεRI by a secondary antibody) is reported as 46.5%, the percentage of surface Siglec-9 signal lost (HSCMCs, 24 h, delayed secondary staining) is reported as 30% and the percentage of surface Siglec-9 signal lost (LAD2 cells, 1 h, delayed secondary staining) is reported as 30%.
